Laboratory results taken from publication PMC8563870, “Development of a nanobody-based immunoassay for the sensitive detection of fibrinogen-like protein 1” (Acta Pharmacologica Sinica, 2021).

B1: FGL1-Fc fusion protein (human fibrinogen-like protein 1 with C-terminal human IgG1 Fc and Flag tag) (Fc fusion, UniProt Q08830 23-306, looked up)
chain: LEDCAQEQMRLRAQVRLLETRVKQQQVKIKQLLQENEVQFLDKGDENTVIDLGSKRQYADCSEIFNDGYKLSGFYKIKPLQSPAEFSVYCDMSDGGGWTVIQRRSDGSENFNRGWKDYENGFGNFVQKHGEYWLGNKNLHFLTTQEDYTLKIDLADFEKNSRYAQYKNFKVGDEKNFYELNIGEYSGTAGDSLAGNFHPEVQWWASHQRMKFSTWDRDHDNYEGNCAEEDQSGWWFNRCHSANLNGVYYSGPYTAKTDNGIVWYTWHGWWYSLKSVVMKIRPND
notes: signal peptide in the construct; human fibrinogen-like protein 1 (FGL1), amino acids 1-306 of NCBI NM_004467, called full-length in the methods; the results say that the protein has 312 amino acids; A 3C protease site and a linker (GGGGS) stand between FGL1 and the Fc, and the Flag tag follows the Fc; The Fc may itself hold the dimer together; For SPR and the ELISAs the Fc was cut off with 3C …

Assays:
[1] = biological target: LAG-3 (Homo sapiens) (UniProt P18627); conditions: cited from earlier work
Sequence of LAG-3 (Homo sapiens) (P18627 23-450): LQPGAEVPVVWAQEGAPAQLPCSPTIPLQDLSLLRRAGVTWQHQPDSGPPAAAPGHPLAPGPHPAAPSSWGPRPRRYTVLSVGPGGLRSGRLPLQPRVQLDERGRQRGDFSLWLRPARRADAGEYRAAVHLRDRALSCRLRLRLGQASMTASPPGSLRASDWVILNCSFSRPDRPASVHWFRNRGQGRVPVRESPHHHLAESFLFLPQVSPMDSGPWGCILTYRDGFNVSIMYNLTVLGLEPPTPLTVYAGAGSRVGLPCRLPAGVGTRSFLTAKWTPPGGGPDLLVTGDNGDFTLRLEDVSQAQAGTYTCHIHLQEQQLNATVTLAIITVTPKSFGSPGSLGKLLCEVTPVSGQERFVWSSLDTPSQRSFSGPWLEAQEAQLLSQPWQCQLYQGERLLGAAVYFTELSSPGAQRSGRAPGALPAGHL

[2] = biological target: the molecule itself; assay: SEC; Superdex 200, 20 mM Tris pH 8.0, 150 mM NaCl; FGL1-Fc after anti-Flag M2 affinity; one aggregate peak and two FGL1 peaks, the peak at approximately 66 mL taken as the homodimer

Row | Molecule | Kd [1] [nM] | stoichiometry N [2]
1 | FGL1 (from UniProt Q08830) | 1.5 | –
2 | B1 | – | 2
